Measured values reported in US20210115087A1 (UNIVERSITY OF ROCHESTER, published 2021).
*1 amine or outer side, *2 acyl side, *3 side chain or, on linkers, in order; H or OH if unused. Bridges are numbered along the chain shown (N, C = ends). Where no end group is shown, it is not given here. [ ]: non-standard residue; d: D form. The star is where a group is joined. O2beY = O-alkylated Tyr from O-2-bromoethyl-tyrosine, O-CH2CH2- thioether-linked to Cys, O=C([C@H](Cc1ccc(OCC[*:3])cc1)N[*:1])[*:2]; L‑5 = linker -CH2S(CH2)2SCH2-, C(CSC[*:2])SC[*:1]; Biotin = O=C1N[C@H]2[C@H](CS[C@H]2CCCCC(=O)*)N1; L‑9 = linker -CH2SCH2CH=CHCH2SCH2-; L‑6 = linker -CH2S(CH2)3SCH2-; L‑4 = linker -CH2SCH2SCH2-

Assays:
[1] = target: T1, GST-Shh (recombinant GST-fused human Sonic Hedgehog) (human, UniProt Q15465 24-197); experiment: plate assay: immobilized GST-Shh, biotinylated peptide, HRP-streptavidin
T1 construct: Expressed in E. coli BL21(DE3), Ni-NTA purified, immobilized on microtiter plates; also called GST-fused Shh; not shown: glutathione-S-transferase (GST) containing a poly-histidine tag, from expression vector pET42b (Novagen); N-terminal fus
Procedure: (§1) Hh protein binding assay. Shh binding activity/affinity of the linear and cyclic peptides was measured using the immunoassay outlined in FIG. 4. For these experiments, GST-Shh was immobilized on 96-well microtiter plates (100 μL of 4 μM GST-Shh solution in PBS buffer), followed by blocking with bovine serum albumin. After washing, each well was incubated with 100 μL of purified FLAG-fused peptide at varying concentrations for 1 hour at room temperature. After washing, each well was added with 100 μL of 1:2500 dilution of HRP-conjugate mouse anti-FLAG polyclonal antibody (Sigma-Aldrich) for 1 hour at room temperature. After washing, 100 μL of 2.2 mM o-phenylenediamine dihydrochloride, 4.2 mM urea hydrogen peroxide, 100 mM dibasic sodium phosphate and 50 mM sodium citrate, pH 5.0 was added to each well, followed by measurement of the absorbance at 450 nm using a Tecan Infinite 1000 plate reader. Equilibrium dissociation constants (KD) were determined by fitting the dose-response curves (FIG. 5) to a 1:1 binding isotherm equation via non-linear regression using SigmaPlot.
For assessing the Shh binding affinity of the cysteine-crosslinked peptides described in Example 4, biotinylated variants of these peptides were prepared by introducing a biotin moiety to the N-terminal peptide of the peptide followed by a tetrapeptide (Gly-Ser-Gly-Ser) (SEQ ID NO: 72) spacer (i.e., peptides Biot-m5-s1 through Biot-m5-s10). The biotinylated peptides were tested in a modified variant of the Shh binding assay described in Example 1, where HRP-conjugated streptavidin is used instead of the HRP-conjugated anti-FLAG antibody.

[2] = target: T1, GST-Shh (recombinant GST-fused human …); experiment: plate immunoassay: immobilized GST-Shh, HRP anti-FLAG antibody
Procedure: as §1
(§2) Next, all of the yet unmodified positions within the HL2-m3 sequence (relative to HL2-m1) were randomized by site-saturation mutagenesis. These positions correspond to residue Thr1, Leu2, Asp3, Glu6, Glu7, Met8, Asp12 of the HL2-m3 sequence. […]

[3] = target: T2, GST-Dhh (recombinant GST-fused human Desert Hedgehog) (human, UniProt O43323 23-198); experiment: plate immunoassay: immobilized GST-Dhh against GST-Shh, HRP anti-FLAG antibody
T2 construct: not shown: glutathione-S-transferase (GST) containing a poly-histidine tag, from expression vector pET42b (Novagen); N-terminal fus
Procedure: as §1
Hedgehog analog selectivity. KD values for FLAG-HL2-m5 binding to Ihh and Dhh were determined using the colorimetric immunoassay described earlier but using GST-Ihh and GST-Dhh-coated plates, respectively. […] Mean values and standard deviations were calculated from experiments performed at least in triplicate.

[4] = target: T1, GST-Shh (recombinant GST-fused human …); experiment: plate immunoassay: immobilized GST-Shh, purified FLAG-tagged peptide titrated, HRP anti-FLAG antibody
Procedure: as §1, §2

[5] = target: T1, GST-Shh (recombinant GST-fused human …); experiment: plate immunoassay: immobilized GST-Shh, FLAG-tagged peptide titrated, HRP anti-FLAG antibody, A450
Procedure: To measure the binding affinity of the peptides for Shh, an in vitro assay was established in which recombinant GST-fused Shh is immobilized on microtiter plates and then exposed to the FLAG-tagged peptide at varying concentrations. The Shh-bound peptide is then quantified colorimetrically (λ₄₅₀) using a horseradish peroxidase (HRP)-conjugated anti-FLAG antibody.
as §1, with “After washing, each well was added with 100 μL of 1:2500 dilution of HRP-conjugate mouse anti-FLAG polyclonal antibody (Sigma-Aldrich) for 1 hour at room temperature.” left out

Biotin-GSGSTLSWCEAMDMCTD-NH2 (disulfide 9-15) [Biot-m5-s1]
Kd [1]: 1.7 µM

Biotin-GSGSTLSWCEAMDMCTD-NH2 (linker 9-15 via L‑9) [BIOT-M5-S5 (as labelled in the KD table of Example 5)]
Kd [1]: 1.1 µM

B1: BIOT-M5-S7 (as labelled in the KD table of Example 5) (peptide)
peptide: GSGSTLSWCEAMDMCTD
modifications: N-terminal biotin; Cys5 and Cys11 crosslinked, by the printed MW 2121.41 with one of the isomeric linkers L-10, L-11, L-12 (drawings; probably L-11); C-terminal amide
notes: it fits the xylene-type linkers
Kd [1]: 9.2 µM

Biotin-GSGSTLSWCEAMDMCTD-NH2 (linker 9-15 via L‑6) [Biot-m5-s4]
Kd [1]: 6.4 µM

MDYKDDDDKGSGSTLSW[O2beY]EAMDMCTD-OH (bridge 18-24; not fully specified (bridges)) [FLAG-HL2-m5]
fold higher binding affinity for Shh compared to FLAG-HL2-pep [2]: ~120 fold | fold lower affinity than for Shh [3]: 2 fold | Kd [4]: 0.17 µM

Biotin-GSGSTLSWCEAMDMCTD-NH2 (linker 9-15 via L‑4) [Biot-m5-s2]
Kd [1]: 3.4 µM

MDYKDDDDKGSGSTLDDMEEMDGLSD (also called linear L2-derived peptide) [FLAG-HL2-pep]
Kd [5]: 20 µM

Biotin-GSGSTLSWCEAMDMCTD-NH2 (linker 9-15 via L‑5) [Biot-m5-s3]
Kd [1]: 5.9 µM
